Measurements as given in US20260217860A1 (BIOCYTOGEN PHARMACEUTICALS BEIJING, published 2026).

T1: monkey (Macaca fascicularis) MUC1 on CHO-S-fasMUC1 cells (monkey (Macaca fascicularis))
T1 construct: CHO-S cells transfected with vectors expressing fasMUC1; also called monkey MUC1
T1 chain: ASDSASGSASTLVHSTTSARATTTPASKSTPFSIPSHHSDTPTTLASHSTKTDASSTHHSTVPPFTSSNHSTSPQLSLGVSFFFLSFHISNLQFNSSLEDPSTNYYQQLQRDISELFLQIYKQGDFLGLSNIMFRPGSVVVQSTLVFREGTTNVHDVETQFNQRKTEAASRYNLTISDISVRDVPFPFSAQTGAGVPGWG

T2: His-tagged monkey MUC1 (fasMUC1-His) (monkey, UniProt Q29435 181-380, limits assumed)
T2 construct: not shown: His tag
T2 chain: T1 chain

B1: E-9A6-M-11E8 (bispecific antibody)
heavy 1: not shown
heavy 2: QVQLVQSGGGVVQPGRSLRLSCAASGFTFSSYAMHWVRQAPGKGLEWVAVISDDGINKYYADSVKGRFTISRDNSKNTLYLQMNSLRAEDSAVYYCARALPTIFGVVMYFYYGLDVWGQGTTATVSSASTKGPSVFPLAPSSKSTSGGTAALGCLVKDYFPEPVTVSWNSGALTSGVHTFPAVLQSSGLYSLSSVVTVPSSSLGTQTYICNVNHKPSNTKVDKKVEPKSCDKTHTCPPCPAPELLGGPSVFLFPPKPKDTLMISRTPEVTCVVVDVSHEDPEVKFNWYVDGVEVHNAKTKPREEQYNSTYRVVSVLTVLHQDWLNGKEYKCKVSNKALPAPIEKTISKAKGQPREPQVCTLPPSREEMTKNQVSLSCAVKGFYPSDIAVEWESNGQPENNYKTTPPVLDSDGSFFLVSKLTVDKSRWQQGNVFSCSVMHEALHNHYTQKSLSLSPGK
light: not shown
notes: Knobs-into-holes bispecific with a common light chain; also called anti-EGFR/MUC1 bispecific antibody
B2: E-9F3-M-11E8 (bispecific antibody)
heavy 1: not shown
heavy 2: B1 heavy 2
light: not shown
notes: as for B1
B3: E-9D2-M-11E8 (bispecific antibody)
heavy 1: not shown
heavy 2: B1 heavy 2
light: not shown
notes: as for B1
B4: E-6C4-M-11E8 (bispecific antibody)
heavy 1: not shown
heavy 2: B1 heavy 2
light: not shown
notes: as for B1
B5: E-9H2-M-11E8 (bispecific antibody)
heavy 1: not shown
heavy 2: B1 heavy 2
light: not shown
notes: Knobs-into-holes bispecific with a common light chain; also called anti-EGFR/MUC1 bispecific antibody; E-9H2-M-llE8

Target: T3, human EGFR on CHO-S-hEGFR cells (human, UniProt P00533 25-645)
T3 construct: CHO-S cells transfected with vectors expressing hEGFR
Assay: flow cytometry, transfected CHO-S cells, 5 ug/mL
Protocol: (§1) The anti-EGFR/MUC1 bispecific antibodies (5 μg/mL) were added to the 96-well plate, and incubated at 4° C. for 30 min. […] For the negative control (NC), only cells were added and no antibodies were added.

Point of comparison: B1, “Percentage of Positive Cells (%)” value 63.3%. Against it:
- B2 — lower, 58.8%
- B3 — lower, 50.1%
- B4 — lower, 48.1%
- B5 — lower, 49.3%

Target: T1, monkey (Macaca fascicularis) MUC1 on …
Assay: flow cytometry, transfected CHO-S cells, 5 ug/mL
Protocol: as §1

Point of comparison: B5, “Percentage of Positive Cells (%)” value 47%. Against it:
- B1 — lower, 45.1%
- B2 — lower, 45.5%
- B3 — the same, 47%
- B4 — higher, 48.2%

Target: T4, human MUC1 (484 amino acids) on CHO-S-hMUC1 (484AA) cells (human, UniProt P15941 24-1158)
T4 construct: CHO cells transfected with vectors expressing 484 amino acids of human MUC1
Assay: flow cytometry, transfected CHO-S cells, 5 ug/mL
Protocol: as §1

Point of comparison: B2, “Percentage of Positive Cells (%)” value 94.2%. Against it:
- B1 — lower, 93.5%
- B3 — lower, 93.8%
- B4 — lower, 94%
- B5 — lower, 94%

Target: T5, monkey EGFR on CHO-S-fasEGFR cells (monkey, UniProt P55245 25-645)
T5 construct: CHO-S cells transfected with vectors expressing fasEGFR
Assay: flow cytometry, transfected CHO-S cells, 5 ug/mL
Protocol: as §1

Point of comparison: B4, “Percentage of Positive Cells (%)” value 18.3%. Against it:
- B1 — higher, 23%
- B2 — higher, 20.5%
- B3 — lower, 16.8%
- B5 — lower, 15.1%

Target: T6, His-tagged monkey EGFR protein (fasEGFR-His, ACROBiosystems Inc., Cat #: EGR-C52H1) (monkey)
T6 construct: Bought protein
Assay: SPR, Biacore 8K, 1:1 fit;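 note: His-tagged targets captured on the chip at roughly 100 RU, antibody analytes flowed at 1 µg/mL in HBS-EP+ pH 7.4, 50 s association, 400 s dissociation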
Protocol: (§2) Specifically, his-tagged proteins were diluted to 200 nM, with 1×HBS-EP+buffer (PH 7.4) and then injected into the Biacore™ 8K biosensor at 10 μL/min for about 50 seconds to achieve a desired protein density (e.g., about 100 response units (RU)). Purified antibodies at 1 μg/mL in 1× HBS-EP+buffer (PH 7.4) were then injected at 10 μL/min for 50 seconds.
(§3) Dissociation was monitored for 400 seconds. The chip was regenerated after the last injection of each titration with a glycine solution (pH 1.5) at 30 L/min for 30 seconds.

Point of comparison: B1, Kd 5.44 nM. Against it:
- B2 — 5.3-fold higher, 28.7 nM
- B3 — 9.6-fold higher, 52.2 nM
- B4 — 15-fold higher, 79.3 nM
- B5 — 15-fold higher, 80.1 nM

Point of comparison: B3, koff 0.0248 s⁻¹. Against it:
- B1 — 21-fold lower, 0.00116 s⁻¹
- B2 — 13-fold lower, 0.00193 s⁻¹
- B4 — within 1.5-fold, 0.0291 s⁻¹
- B5 — within 1.5-fold, 0.0173 s⁻¹

Point of comparison: B5, kon 215000 M⁻¹ s⁻¹. Against it:
- B1 — within 1.5-fold, 213000 M⁻¹ s⁻¹
- B2 — 3.2-fold lower, 67100 M⁻¹ s⁻¹
- B3 — 2.2-fold higher, 476000 M⁻¹ s⁻¹
- B4 — 1.7-fold higher, 367000 M⁻¹ s⁻¹

Target: T2, His-tagged monkey MUC1 (fasMUC1-His)
Assay: SPR, Biacore 8K, 1:1 fit;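 note: His-tagged targets captured on the chip at roughly 100 RU, antibody analytes flowed at 1 µg/mL in HBS-EP+ pH 7.4, 50 s association, 400 s dissociation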
Protocol: as §2, §3

Point of comparison: B3, Kd 19.1 nM. Against it:
- B1 — 2.1-fold higher, 40.5 nM
- B2 — within 1.5-fold, 25.7 nM
- B4 — within 1.5-fold, 25.7 nM
- B5 — 7.1-fold lower, 2.69 nM

Point of comparison: B5, koff 0.00105 s⁻¹. Against it:
- B1 — 15-fold higher, 0.0162 s⁻¹
- B2 — 10-fold higher, 0.011 s⁻¹
- B3 — 8.5-fold higher, 0.00896 s⁻¹
- B4 — 9.7-fold higher, 0.0102 s⁻¹

Point of comparison: B2, kon 426000 M⁻¹ s⁻¹. Against it:
- B1 — within 1.5-fold, 401000 M⁻¹ s⁻¹
- B3 — within 1.5-fold, 470000 M⁻¹ s⁻¹
- B4 — within 1.5-fold, 398000 M⁻¹ s⁻¹
- B5 — within 1.5-fold, 389000 M⁻¹ s⁻¹

Target: T7, His-tagged human EGFR protein (hEGFR-His, ACROBiosystems Inc., Cat #: EGR-H5222) (human, UniProt P00533 25-645)
T7 construct: Bought protein; not shown: His tag
Assay: SPR, Biacore 8K, 1:1 fit;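 note: His-tagged targets captured on the chip at roughly 100 RU, antibody analytes flowed at 1 µg/mL in HBS-EP+ pH 7.4, 50 s association, 400 s dissociation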

Point of comparison: B5, Kd 88.3 nM. Against it:
- B1 — 16-fold lower, 5.54 nM
- B2 — 3.1-fold lower, 28.7 nM
- B3 — within 1.5-fold, 59.5 nM
- B4 — within 1.5-fold, 91.8 nM

Point of comparison: B5, koff 0.0157 s⁻¹. Against it:
- B1 — 16-fold lower, 0.00101 s⁻¹
- B2 — 7.7-fold lower, 0.00203 s⁻¹
- B3 — within 1.5-fold, 0.02 s⁻¹
- B4 — 1.7-fold higher, 0.0264 s⁻¹

Point of comparison: B3, kon 337000 M⁻¹ s⁻¹. Against it:
- B1 — 1.8-fold lower, 183000 M⁻¹ s⁻¹
- B2 — 4.8-fold lower, 70700 M⁻¹ s⁻¹
- B4 — within 1.5-fold, 287000 M⁻¹ s⁻¹
- B5 — 1.9-fold lower, 178000 M⁻¹ s⁻¹

Target: T8, His-tagged human MUC1 protein hMUC1(961-1152)-His (human, UniProt P15941 961-1152)
T8 construct: also called hMUC(961-1152)-His; not shown: His tag
Assay: SPR, Biacore 8K, 1:1 fit;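 note: His-tagged targets captured on the chip at roughly 100 RU, antibody analytes flowed at 1 µg/mL in HBS-EP+ pH 7.4, 50 s association, 400 s dissociation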

Point of comparison: B3, Kd 2.79 nM. Against it:
- B1 — 3.6-fold higher, 9.99 nM
- B2 — within 1.5-fold, 2.63 nM
- B4 — within 1.5-fold, 2.66 nM
- B5 — 2.2-fold higher, 6.19 nM

Point of comparison: B2, koff 0.000881 s⁻¹. Against it:
- B1 — 2.5-fold higher, 0.00218 s⁻¹
- B3 — 1.6-fold lower, 0.000543 s⁻¹
- B4 — within 1.5-fold, 0.00109 s⁻¹
- B5 — 1.5-fold lower, 0.000571 s⁻¹

Point of comparison: B1, kon 218000 M⁻¹ s⁻¹. Against it:
- B2 — 1.5-fold higher, 336000 M⁻¹ s⁻¹
- B3 — within 1.5-fold, 195000 M⁻¹ s⁻¹
- B4 — 1.9-fold higher, 410000 M⁻¹ s⁻¹
- B5 — 2.4-fold lower, 92300 M⁻¹ s⁻¹
